Patent publication US20110136737A1
Changes are numbered by the printed parent chain.

T1: GIP receptor (GIP RBA, RIN), P43219
T1 chain: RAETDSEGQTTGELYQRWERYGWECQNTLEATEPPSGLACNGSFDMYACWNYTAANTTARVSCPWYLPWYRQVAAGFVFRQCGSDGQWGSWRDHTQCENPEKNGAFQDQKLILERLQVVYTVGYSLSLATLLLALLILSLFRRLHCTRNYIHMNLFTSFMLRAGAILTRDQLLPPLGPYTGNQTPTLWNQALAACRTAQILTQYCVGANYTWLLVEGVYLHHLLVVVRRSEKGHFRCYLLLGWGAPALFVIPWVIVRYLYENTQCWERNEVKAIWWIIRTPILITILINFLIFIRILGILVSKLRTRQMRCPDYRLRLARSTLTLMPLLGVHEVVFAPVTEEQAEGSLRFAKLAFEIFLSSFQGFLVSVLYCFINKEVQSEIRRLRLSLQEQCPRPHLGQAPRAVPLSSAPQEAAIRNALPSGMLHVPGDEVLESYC

T2: human GIP receptor (human), P48546
T2 chain: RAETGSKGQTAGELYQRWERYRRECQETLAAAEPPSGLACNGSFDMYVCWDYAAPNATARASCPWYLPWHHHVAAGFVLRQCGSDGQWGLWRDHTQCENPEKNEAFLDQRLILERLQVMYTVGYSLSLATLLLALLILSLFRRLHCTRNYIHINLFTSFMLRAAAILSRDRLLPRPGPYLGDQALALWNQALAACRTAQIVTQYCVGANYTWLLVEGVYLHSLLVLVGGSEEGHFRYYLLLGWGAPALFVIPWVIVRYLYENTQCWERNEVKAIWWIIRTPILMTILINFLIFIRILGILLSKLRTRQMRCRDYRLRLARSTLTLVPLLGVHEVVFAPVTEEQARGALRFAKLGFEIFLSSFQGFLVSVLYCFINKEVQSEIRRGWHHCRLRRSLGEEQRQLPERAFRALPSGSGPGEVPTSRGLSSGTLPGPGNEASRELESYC

B1: 0601GIP4178 (peptide)
peptide: GYAEGTFISDYSIAMDKIHQQDFVNWLLAQKPSSGAPPPS
modifications: not checked
B2: 0601GIP4151 (peptide)
peptide: YAEGTFISEYSIAMDKIHQQDFVNWLLAQKPSSGAPPPS
modifications: not checked
B3: 0601GIP4165 (peptide)
peptide: B2 peptide with E9D, K30A
modifications: not checked
B4: 0601GIP4293 (peptide)
peptide: B1 peptide with H19R
modifications: not checked
B5: 0601GIP4798 (peptide)
peptide: LYAEGTFISDYSIAMDKIHQQDFVNWLLAQKPKKIRYS
modifications: not checked
B6: 0601GIP4801 (peptide)
peptide: B5 peptide with L1I
modifications: not checked
B7: 0601GIP4802 (peptide)
peptide: B5 peptide with M15L, H19A, D22E
modifications: not checked
B8: 0601GIP4803 (peptide)
peptide: B5 peptide with M15L, H19A, D22E
modifications: not checked
B9: 0601GIP4807 (peptide)
peptide: YAEGTFISDYSIALDKIHQQDFVNWLLAQKPKKIRYS
modifications: not checked
B10: 0601GIP4762 (peptide)
peptide: B9 peptide with L14M
modifications: not checked
B11: 0601GIP4386 (peptide)
peptide: B9 peptide with A2S, E3D, L14M
modifications: not checked
B12: 0601GIP4538 (peptide)
peptide: B9 peptide with A2S, L14M
modifications: not checked
B13: 0601GIP4539 (peptide)
peptide: B9 peptide with H18R, D21E
modifications: not checked
B14: 0601GIP4540 (peptide)
peptide: B9 peptide with H18R, N24E
modifications: not checked
B15: 0601GIP4631 (peptide)
peptide: B9 peptide with H18A, D21E
modifications: not checked
B16: 0601GIP4710 (peptide)
peptide: YAEGTFISDYSIAMDKIHQQDFVNWLLAQKPSKEIIH
modifications: not checked
B17: 0601GIP4765 (peptide)
peptide: B16 peptide with H37S
modifications: not checked
B18: 0601GIP4700 (peptide)
peptide: YAEGTFISDYSIAMDKIHQQDFVNWLLAQKPKGKGKS
modifications: not checked
B19: 0601GIP4619 (peptide)
peptide: YAEGTFISDYSIAMDKIHQQDFVNWLLAQKGFVLWKGIQ
modifications: not checked
B20: 0601GIP4233 (peptide)
peptide: B9 peptide with L14M
modifications: not checked
B21: 0601GIP4839 (peptide)
peptide: B9 peptide with Y1H, A2G, L14M
modifications: not checked
B22: 0601GIP4840 (peptide)
peptide: B9 peptide with Y1H, L14M
modifications: not checked
B23: 0601GIP4841 (peptide)
peptide: B9 peptide with Y1H, A2G, H18A, D21E
modifications: not checked
B24: 0601GIP4842 (peptide)
peptide: B9 peptide with Y1H, A2G, H18R, D21E
modifications: not checked
B25: 0601GIP4814 (peptide)
peptide: B9 peptide with L14M, P31A
modifications: not checked
B26: 0601GIP4815 (peptide)
peptide: B9 peptide with L14M, K32A
modifications: not checked
B27: 0601GIP4816 (peptide)
peptide: B9 peptide with L14M, K33A
modifications: not checked
B28: 0601GIP4819 (peptide)
peptide: B9 peptide with L14M, S37A
modifications: not checked
B29: 0601GIP4820 (peptide)
peptide: YAEGFISDYSIAMDKIHQQDFVNWLLAQKPSPKKIRYS
modifications: not checked
B30: 0601GIP4823 (peptide)
peptide: YAEGTFISDYSIAMDKIHQQDFVNWLLAQKPSPKKIRYS
modifications: not checked
B31: 0601GIP4821 (peptide)
peptide: B9 peptide with L14M, K33S, I34A, Y36P
modifications: not checked
B32: 0601GIP4822 (peptide)
peptide: B9 peptide with L14M, I34L, R35K, Y36P
modifications: not checked
B33: 0601GIP4768 (peptide)
peptide: B9 peptide with L14M, N24P
modifications: not checked
B34: 0601GIP4769 (peptide)
peptide: B9 peptide with L14M, W25E
modifications: not checked
B35: 0601GIP4770 (peptide)
peptide: B9 peptide with L14M, W25P
modifications: not checked
B36: 0601GIP4771 (peptide)
peptide: B9 peptide with L14M, L27E
modifications: not checked
B37: 0601GIP4390 (peptide)
peptide: B9 peptide with E3D, L14M
modifications: not checked

Target: T1, GIP receptor (GIP RBA, RIN), P43219
Assay: cell-based or functional assay

Row | Binder | Cyclase
1 | B1 | 96
2 | B2 | 10000
3 | B3 | 40

Target: T1, GIP receptor (GIP RBA, RIN), P43219
Assay: cell-based or functional assay
Remark: another data set of the same source

Row | Binder | Cyclase
4 | B1 | 36.2
5 | B4 | 20

Target: T2, human GIP receptor (human), P48546
Assay: 125I-GIP displacement by 10 nM analog, HEK-GIPR membranes

Row | Binder | % Inh at 10 nM
6 | B5 | 82.3%
7 | B6 | 88.8%
8 | B7 | 87.3%
9 | B8 | 89.9%
10 | B9 | 96.1%
11 | B10 | 79.1%
12 | B11 | 93.6%
13 | B12 | 94.2%
14 | B13 | 98.7%
15 | B14 | 92.2%
16 | B15 | 79%
17 | B16 | 79.2%
18 | B17 | 67%
19 | B18 | 86.6%
20 | B19 | 84.6%
21 | B20 | 89%
22 | B21 | 23.9%

Row | Binder | % Inh at 10 nM
23 | B22 | 44.1%
24 | B23 | 56.6%
25 | B24 | 40.8%
26 | B25 | 88%
27 | B26 | 89%
28 | B27 | 87.3%
29 | B28 | 80.4%
30 | B29 | 46%
31 | B30 | 94.1%
32 | B31 | 93.5%
33 | B32 | 95.4%
34 | B33 | 17.9%
35 | B34 | 42.8%
36 | B35 | 10.8%
37 | B36 | 17.8%
38 | B37 | 90.3%
